Results as given in US7354734B2, “Fungal proteins and nucleic acids encoding same” (priority 2003, dated 2008).
“Also recorded” adds a separate entry of the source.

Key:
[1] = format: biochemical
[2] = format: biochemical; details: substrate Lys(Abz)Pro-PropNA 5 mM, 37° C., 60 min

B1: fuLAP1: A. fumigatus leucine aminopeptidase, 388 amino acid residues (SEQ ID NO: 12) (protein, listed as Aspergillus fumigatus)
chain: MKVLTAIALSAIAFTGAVAAVITQEAFLNNPRIHHDQEKYLIELAPYRTRWVTEEEKWALKLDGVNFIDITEEHNTGFYPTLHSASYVKYPPKMQYAEEVAALNKNLSKENMKANLERFTSFHTRYYKSQTGIRSATWLFDQVQRVVSESGAAEYGATVERFSHPWGQFSIIARIPGRTNKTVVLGAHQDSINLFLPSILAAPGADDDGSGTVTILEALRGLLQSDAIAKGNASNTVEFHWYSAEEGGMLGSQAIFSNYKRNRREIKAMLQQDMTGYVQGALNAGVEEAIGIMVDYVDQGLTQFLKDVVTAYCSVGYLETKCGYACSDHTSASKYGYPAAMATEAEMENTNKKIHTTDDKIKYLSFDHMLEHAKLSLGFAFELAFAPF
In the case of B1, the “hydrolytic activity toward Arg-AMC” value ([1]; compared to Leu-AMC) is reported as “appreciated”, the “hydrolytic activity toward Phe-AMC” value ([1]; compared to Leu-AMC) is reported as “appreciated” and the “hydrolytic activity toward Val-AMC” value ([1]; compared to Leu-AMC) is reported as “appreciated”. The “hydrolytic activity toward Ala-AMC in comparison to Leu-MCA used as a standard” value ([1]; substrate Ala-AMC 5 mM, 37° C., 60 min) was 4.7%, the “hydrolytic activity toward Arg-AMC in comparison to Leu-MCA used as a standard” value ([1]; substrate Arg-AMC 5 mM, 37° C., 60 min) was 53.9% and the “hydrolytic activity toward Asn-AMC in comparison to Leu-MCA used as a standard” value ([1]; substrate Asn-AMC 5 mM, 37° C., 60 min) was 29.4%. The “hydrolytic activity toward Asp-AMC in comparison to Leu-MCA used as a standard” value ([1]; substrate Asp-AMC 5 mM, 37° C., 60 min) was 0.8%, the “hydrolytic activity toward Cys-AMC in comparison to Leu-MCA used as a standard” value ([1]; substrate Cys-AMC 5 mM, 37° C., 60 min) was 5.0% and the “hydrolytic activity toward Gln-AMC in comparison to Leu-MCA used as a standard” value ([1]; substrate Gln-AMC 5 mM, 37° C., 60 min) was 44.9%. The “hydrolytic activity toward Glu-AMC in comparison to Leu-MCA used as a standard” value ([1]; substrate Glu-AMC 5 mM, 37° C., 60 min) was 0.0%, the “hydrolytic activity toward Gly-AMC in comparison to Leu-MCA used as a standard” value ([1]; substrate Gly-AMC 5 mM, 37° C., 60 min) was 0.8% and the “hydrolytic activity toward Gly-Pro-AMC in comparison to Leu-MCA used as a standard” value ([1]; substrate Gly-Pro-AMC 5 mM, 37° C., 60 min) was 5.4%. The “hydrolytic activity toward His-AMC in comparison to Leu-MCA used as a standard” value ([1]; substrate His-AMC 5 mM, 37° C., 60 min) was 0.8%, the “hydrolytic activity toward Hyp-AMC in comparison to Leu-MCA used as a standard” value ([1]; substrate Hyp-AMC 5 mM, 37° C., 60 min) was 3.9% and the “hydrolytic activity toward Ile-AMC in comparison to Leu-MCA used as a standard” value ([1]; substrate Ile-AMC 5 mM, 37° C., 60 min) was 13.2%. For the same molecule, the “hydrolysis of Leu-AMC” value ([1]; substrate Leu-AMC) was “efficiently hydrolyzed; also recorded: common preference”, the “hydrolytic activity toward Leu-AMC in comparison to Leu-MCA used as a standard” value ([1]; substrate Leu-AMC 5 mM, 37° C., 60 min) was 100.0% and the “hydrolytic activity toward Lys-AMC in comparison to Leu-MCA used as a standard” value ([1]; substrate Lys-AMC 5 mM, 37° C., 60 min) was 7.7%. For the same molecule, the “hydrolytic activity toward Met-AMC in comparison to Leu-MCA used as a standard” value ([1]; substrate Met-AMC 5 mM, 37° C., 60 min) was 116.9%, the “hydrolytic activity toward Phe-AMC in comparison to Leu-MCA used as a standard” value ([1]; substrate Phe-AMC 5 mM, 37° C., 60 min) was 163.7% and the “hydrolytic activity toward Pro-AMC in comparison to Leu-MCA used as a standard” value ([1]; substrate Pro-AMC 5 mM, 37° C., 60 min) was 12.0%. For the same molecule, the “hydrolytic activity toward Pyr-AMC in comparison to Leu-MCA used as a standard” value ([1]; substrate Pyr-AMC 5 mM, 37° C., 60 min) was 0.0%, the “hydrolytic activity toward Ser-AMC in comparison to Leu-MCA used as a standard” value ([1]; substrate Ser-AMC 5 mM, 37° C., 60 min) was 10.3% and the “hydrolytic activity toward Thr-AMC in comparison to Leu-MCA used as a standard” value ([1]; substrate Thr-AMC 5 mM, 37° C., 60 min) was 5.1%. For the same molecule, the “hydrolytic activity toward Val-AMC in comparison to Leu-MCA used as a standard” value ([1]; substrate Val-AMC 5 mM, 37° C., 60 min) was 27.6% and the “hydrolytic activity toward Lys(Abz)Pro-PropNA in comparison to Leu-MCA used as a standard” value [2] was 0.0%.
